What was measured:
Vaccinia virus E3 = biological target: T1, Vaccinia virus E3
T1 chain: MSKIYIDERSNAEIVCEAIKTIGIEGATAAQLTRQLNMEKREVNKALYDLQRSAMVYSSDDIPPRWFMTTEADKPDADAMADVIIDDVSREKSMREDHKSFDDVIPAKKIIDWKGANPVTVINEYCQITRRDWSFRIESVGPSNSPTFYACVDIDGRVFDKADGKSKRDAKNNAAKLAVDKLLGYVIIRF

Vaccinia virus K3 = biological target: T2, Vaccinia virus K3
T2 chain: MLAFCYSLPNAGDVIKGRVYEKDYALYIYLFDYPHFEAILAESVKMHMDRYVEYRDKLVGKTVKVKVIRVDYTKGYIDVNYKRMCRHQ

B1: RNA-dependent protein kinase (PKR) (protein)
chain: AGDLSAGFFMEELNTYRQKQGVVLKYQELPNSGPPHDRRFTFQVIIDGREFPEGEGRSKKEAKNAAAKLAVEILNKEKKAVSPLLLTTTNSSEGLSMGNYIGLINRIAQKKRLTVNYEQCASGVHGPEGFHYKCKMGQKEYSIGTGSTKQEAKQLAAKLAYLQILSEETSVKSDYLSSGSFATTCESQSNSLVTSTLASESSSEGDFSADTSEINSNSDSLNSSSLLMNGLRNNQRKAKRSLAPRFDLPDMKETKYTVDKRFGMDFKEIELIGSGGFGQVFKAKHRIDGKTYVIKRVKYNNEKAEREVKALAKLDHVNIVHYNGCWDGFDYDPETSDDSLESSDYDPENSKNSSRSKTKCLFIQMEFCDKGTLEQWIEKRRGEKLDKVLALELFEQITKGVDYIHSKKLIHRDLKPSNIFLVDTKQVKIGDFGLVTSLKNDGKRTRSKGTLRYMSPEQISSQDYGKEVDLYALGLILAELLHVCDTAFETSKFFTDLRDGIISDIFDKKEKTLLQKLLSKKPEDRPNTSEILRTLTVWKKSPEKNERHTC
- PKR autophosphorylation (Western blot with phospho-PKR specific antibody) (Vaccinia virus E3): E3 and K3 reduce PKR autophosphorylation
- PKR autophosphorylation (Western blot with phospho-PKR specific antibody) (Vaccinia virus K3): E3 and K3 reduce PKR autophosphorylation
